Source: PMC4747905, “Structure of BRCA1-BRCT/Abraxas Complex Reveals Phosphorylation-Dependent BRCT Dimerization at DNA Damage Sites” (Molecular Cell, 2016)
Square brackets hold non-standard residues; d marks the D form. Ends that are not written are not given here. pS = N[C@@H](COP(=O)(O)O)C(=O)O

How the values were obtained:
BRCA1 BRCT domains [1] = target: T1, BRCA1 BRCT domains (UniProt P38398 1646-1859); test: native MS; peak fractions from gel filtration, 15 μM protein, 300 mM ammonium acetate pH 7.6, nano-electrospray; details: both partners purified
T1 construct: BRCA1 tandem BRCT domains (BRCT1 and BRCT2); construct limits are in the Supplemental Information; also called BRCT domain only; source: purified; construction and purification are described in the Supplemental Information

BRCA1 BRCT domains [2] = target: T1, BRCA1 BRCT domains; test: SEC; BRCT and peptide mixed 1:3 (molar), final 1 mg/ml (about 40 μM), Superdex 75 10/300, Buffer A, 0.5 ml/min; details: both partners purified
[3] = target: the molecule itself; test: as above

B1: Abraxas single phosphorylated peptide Ab1p (peptide)
peptide: GFGEYSR[pS]PTF
notes: Abraxas C-terminal peptide, printed as GFGEYSRpSPTF; source: synthesized peptide
stoichiometry N (BRCA1 BRCT domains [1]): 1

B2: Abraxas peptide Ab2p (F400D) (peptide, UniProt Q6UWZ7 399-409, looked up)
peptide: GDGEY[pS]R[pS]PTF
notes: Abraxas C-terminal peptide, as Ab2p (GFGEYpSRpSPTF) with F400D
binding result (BRCA1 BRCT domains [2]): binds

B3: Abraxas peptide Ab1p (S404D) (peptide, UniProt Q6UWZ7 399-409, looked up)
peptide: GFGEYDR[pS]PTF
notes: Abraxas C-terminal peptide, as Ab1p (GFGEYSRpSPTF) with the phosphomimetic S404D
binding result (BRCA1 BRCT domains [2]): binds

B4: Abraxas peptide Ab2p(Y403A) (peptide, UniProt Q6UWZ7 399-409, looked up)
peptide: GFGEA[pS]R[pS]PTF
notes: Abraxas C-terminal peptide, as Ab2p (GFGEYpSRpSPTF) with Y403A
binding result (BRCA1 BRCT domains [2]): binds

B5: Abraxas peptide Ab1p (S404P) (peptide, UniProt Q6UWZ7 399-409, looked up)
peptide: GFGEYPR[pS]PTF
notes: Abraxas C-terminal peptide, as Ab1p (GFGEYSRpSPTF) with S404P
binding result (BRCA1 BRCT domains [2]): binds

B6: Abraxas peptide Ab2p(E402R) (peptide, UniProt Q6UWZ7 399-409, looked up)
peptide: GFGRY[pS]R[pS]PTF
notes: Abraxas C-terminal peptide, as Ab2p (GFGEYpSRpSPTF) with E402R
binding result (BRCA1 BRCT domains [2]): binds

ISRST[pS]PTFNKQTK [Bach1 phosphopeptide]
stoichiometry N (BRCA1 BRCT domains [1]): 1

PTRVS[pS]PVFGAT [CtIP phosphopeptide]
stoichiometry N (BRCA1 BRCT domains [1]): 1

B7: Abraxas double phosphorylated peptide Ab2p_short (peptide)
peptide: Y[pS]R[pS]PTF
notes: Abraxas C-terminal peptide without GFGE, printed as YpSRpSPTF; source: synthesized peptide
binding result (BRCA1 BRCT domains [2]): binds

A[pS]R[pS]PTF (peptide, UniProt Q6UWZ7 403-409, looked up, also called Abraxas(Y403A)_short) [Abraxas peptide Ab2p(Y403A_short)]
binding result (BRCA1 BRCT domains [2]): binds

B8: BRCT-Ab2p_short complex (complex)
chain: VNKRMSMVVSGLTPEEFMLVYKFARKHHITLTNLITEETTHVVMKTDAEFVCERTLKYFLGIAGGKWVVSYFWVTQSIKERKMLNEHDFEVRGDVVNGRNHQGPKRARESQDRKIFRGLEICCYGPFTNMPTDQLEWMVQLCGASVVKELSSFTLGTGVHPIVVVQPDAWTEDNGFHAIGQMCEAPVVTREWVLDSVALYQCQELDTYLIPQIP
peptide: YSRSPTF
modifications: phosphoserine at S404 and S406
notes: as m1: BRCA1 tandem BRCT domains; limits in the Supplemental Information; as m5: Abraxas C-terminal peptide YpSRpSPTF; the 1:1 unit of m1 and m5; source: purified BRCT mixed with peptide at 1:3 molar ratio
binding result [3]: binds
